Measured values published in patent publication US20210147829A1, “VARIANT NUCLEOTIDE LIBRARY” (The University of Manchester, priority 2017, published 2021).

How the values were obtained:
[1] = cited from earlier work; for kcat, substrate AMBA: Table 3
[2] = Liquid phase kinetic assay of purified MAO-N variants, substrate benzylamine; assay type: biochemical
Description: (§1) Selected variants were overexpressed by BL21 (DE3) E. coli strain in 700 mL of LB medium with 100 μg mL^−1 ampicillin. 0.5 mM of IPTG was introduced to the culture when OD600 reached 0.6 and the culture was incubated at 25° C., 180 rpm. Cells were harvested after 16-20 hours and purified using 5 mL Histrap FF crude column (GE Healthcare) with an AKTA Explorer 100 protein purification system as described (55).
(§2) A range of amine stock solutions including α-methylbenzylamine, N-amylamine, butylamine, benzylamine or cyclohexylamine (all from Sigma) were prepared in 0.1 M potassium phosphate pH 7.7. The final concentration range of the substrate was between 0.5 mM to 100 mM. A colourimetric assay solution was made up by dissolving Pyrogallol red (0.3 mM final concentration) in 0.1 M potassium phosphate, pH 7.7. The assay was conducted by combining 35 μL of substrate solution, 50 μL of Pyrogallol red solution and 5 μL of horseradish peroxidase (1 mg mL^−1) in a flat bottom 96-well plate and started by adding 110 μL of purified MAO-N. Assay progress was monitored at 550 nm at 25° C. in a Molecular Devices Spectramex M2 plate reader. The data were analysed using Prism7 (GraphPad) which was also used to calculate kinetic parameters such as kcat, km and Vmax.

[3] = MAO-N variant activity to native primary amine substrates (taken together); assay type: biochemical; conditions: range over native substrates
Description: as §1, §2

[4] = Liquid phase kinetic assay of purified MAO-N variants, substrate butylamine; assay type: biochemical
Description: as §1, §2

[5] = Liquid phase kinetic assay of purified MAO-N variants, substrate N-amylamine; assay type: biochemical
Description: as §1, §2

[6] = Liquid phase kinetic assay of purified MAO-N variants, substrate α-methylbenzylamine; assay type: biochemical; conditions: Table 4; kcat for α-methylbenzylamine
Description: as §1, §2

[7] = Table 4, α-methylbenzylamine, Reference {Alexeeva 2002}

Molecule	kcat, substrate AMBA ([1]; Reference {Alexeeva 2002}) [s⁻¹]	kcat [1, 7] [s⁻¹]	kcat towards α-MBA ([1]; wild type, literature value) [s⁻¹]	kcat, substrate BZA ([2]; Table 3) [s⁻¹]	kcat Benzylamine (BZA) ([2]; Table 5) [s⁻¹]	kcat for several primary amine substrates ('wild type speed') [3] [s⁻¹]	kcat, substrate BTA ([4]; Table 3) [s⁻¹]	kcat Butylamine (BTA) ([4]; Table 5) [s⁻¹]	kcat, substrate AA ([5]; Table 3) [s⁻¹]	kcat N-amylamine (AA) ([5]; Table 5) [s⁻¹]	Km [1, 7] [µM]	Improvement over wild type [6]
WT: Wild type monoamine oxidase-N (MAO-N, A. niger), an amine-oxidising biocatalyst (protein, UniProt P46882 1-495, looked up) Monoamine oxidase N: MTSRDGYQWTPETGLTQGVPSLGVISPPTNIEDTDKDGPWDVIVIGGGYCGLTATRDLTVAGFKTLLLEARDRIGGRSWSSNIDGYPYEMGGTWVHWHQSHVWREITRYKMHNALSPSFNFSRGVNHFQLRTNPTTSTYMTHEAEDELLRSALHKFTNVDGTNGRTVLPFPHDMFYVPEFRKYDEMSYSERIDQIRDELSLNERSSLEAFILLCSGGTLENSSFGEFLHWWAMSGYTYQGCMDCLISYKFKDGQSAFARRFWEEAAGTGRLGYVFGCPVRSVVNERDAARVTARDGREFAAKRLVCTIPLNVLSTIQFSPALSTERISAMQAGHVNMCTKVHAEVDNKDMRSWTGIAYPFNKLCYAIGDGTTPAGNTHLVCFGTDANHIQPDEDVRETLKAVGQLAPGTFGVKRLVFHNWVKDEFAKGAWFFSRPGMVSECLQGLREKHRGVVFANSDWALGWRSFIDGAIEEGTRAARVVLEELGTKREVKARL	0.00283	0.00283	0.00283	4.37	4.37	4.37 to 6.57	6.57	6.57	6.45	6.45		
D1 N336S: MAO-N variant D1 with mutation N336S, Reference {Alexeeva 2002} (protein, UniProt P46882 1-495, looked up, variant N336S) Monoamine oxidase N: MTSRDGYQWTPETGLTQGVPSLGVISPPTNIEDTDKDGPWDVIVIGGGYCGLTATRDLTVAGFKTLLLEARDRIGGRSWSSNIDGYPYEMGGTWVHWHQSHVWREITRYKMHNALSPSFNFSRGVNHFQLRTNPTTSTYMTHEAEDELLRSALHKFTNVDGTNGRTVLPFPHDMFYVPEFRKYDEMSYSERIDQIRDELSLNERSSLEAFILLCSGGTLENSSFGEFLHWWAMSGYTYQGCMDCLISYKFKDGQSAFARRFWEEAAGTGRLGYVFGCPVRSVVNERDAARVTARDGREFAAKRLVCTIPLNVLSTIQFSPALSTERISAMQAGHVSMCTKVHAEVDNKDMRSWTGIAYPFNKLCYAIGDGTTPAGNTHLVCFGTDANHIQPDEDVRETLKAVGQLAPGTFGVKRLVFHNWVKDEFAKGAWFFSRPGMVSECLQGLREKHRGVVFANSDWALGWRSFIDGAIEEGTRAARVVLEELGTKREVKARL	0.133	0.133									400	40-fold
